From the RNAGym collection of RNA variant scans (doi:10.7554/elife.80360)

B1: CPEB3 Ribozyme (parent)
chain: GGGGGCCACAGCAGAAGCGUUCACGUCGCGGCCCCUGUCAGAUUCUGGUGAAUCUGCGAAUUCUGCUGU

Variants of: B1
Test: self-cleavage, relative activity (ratio to wild type); higher = more cleavage; co-transcriptional

Going from U44G A52U to U44G A52G, the self-cleavage falls from 0.975 to 0.943.

Compared with U44C C63G, U44C C63U is higher in self-cleavage: 0.417 for the first, 0.819 for the second.

Going from C45G G68C to C45G G68A, the self-cleavage falls from 1 to 0.942.

Compared with U44G A59U, U44G A59G is higher in self-cleavage: 0.612 for the first, 0.951 for the second.

Compared with U44C U49C, U44C U49A is higher in self-cleavage: 0.83 for the first, 0.931 for the second.

Compared with U44C U49G, C45G U67A is higher in self-cleavage: 0.959 for the first, 0.962 for the second.

First: C45G U67C
Second: C45U A52G
The self-cleavage of the first is lower: 0.917 for the first, 1.01 for the second.

Going from C45U A52C to C45U A52U, the self-cleavage falls from 0.988 to 0.972.

Going from U44G G50C to U44G G50U, the self-cleavage rises from 0.949 to 0.98.

Compared with U44C A60G, U44C A60U is lower in self-cleavage: 0.669 for the first, 0.441 for the second.

First: C45A U53A
Second: C45U G56C
The self-cleavage of the first is higher: 0.87 for the first, 0.694 for the second.

Going from C45U G56U to U44G U67A, the self-cleavage falls from 0.897 to 0.883.

Going from U44G U67C to U44G U67G, the self-cleavage rises from 0.977 to 1.01.

Going from U44G U55C to C45A U62G, the self-cleavage rises from 0.512 to 0.832.

Going from C45A U62A to C45A U62C, the self-cleavage rises from 0.846 to 0.85.

First: U44G C66G
Second: U44G C66U
The self-cleavage of the first is lower: 0.707 for the first, 0.986 for the second.

Compared with U44G G58C, U44G G58U is higher in self-cleavage: 0.944 for the first, 0.959 for the second.

Going from U44G G58A to U46C C57A, the self-cleavage falls from 0.922 to 0.373.

Going from U44C U55C to U44C U55A, the self-cleavage rises from 0.473 to 0.524.

Going from U46C U49C to U46C U49A, the self-cleavage rises from 0.913 to 0.996.

First: C45G U55A
Second: C45G U55G
The self-cleavage of the first is higher: 0.797 for the first, 0.648 for the second.

First: C45G U55C
Second: C45A U61A
The self-cleavage of the first is lower: 0.487 for the first, 0.86 for the second.

Compared with C45A U61G, C45A C54U is higher in self-cleavage: 0.6 for the first, 0.926 for the second.

Going from C45A C54G to U44G U49G, the self-cleavage rises from 0.562 to 0.927.

Compared with C45G A52C, C45A C63A is lower in self-cleavage: 0.981 for the first, 0.817 for the second.

Compared with U46C U53G, C45U A60U is lower in self-cleavage: 0.872 for the first, 0.469 for the second.

Going from C45U A60C to C45U A60G, the self-cleavage rises from 0.33 to 0.9.

Compared with U46A C57U, U46A C57G is higher in self-cleavage: 0.309 for the first, 0.31 for the second.

Going from C45U G65C to C45U G65U, the self-cleavage rises from 0.719 to 0.813.

First: U46C C63A
Second: U46C C63G
The self-cleavage of the first is lower: 0.771 for the first, 0.796 for the second.

Going from U46C C63U to U44C U69A, the self-cleavage falls from 0.983 to 0.927.

First: U44C U69G
Second: U44C U69C
The self-cleavage of the first is lower: 1.02 for the first, 1.07 for the second.

First: C45U U64G
Second: U46A G58U
The self-cleavage of the first is lower: 0.854 for the first, 0.988 for the second.

Compared with U46A G58C, U46A G58A is lower in self-cleavage: 0.961 for the first, 0.93 for the second.

Going from C45U A59G to C45U A59U, the self-cleavage falls from 0.98 to 0.837.

Going from U44C A51C to U44C A51G, the self-cleavage falls from 0.99 to 0.693.

First: U44C A51U
Second: U44C U53G
The self-cleavage of the first is higher: 0.919 for the first, 0.747 for the second.

Going from U44C U53A to U44C U53C, the self-cleavage falls from 0.895 to 0.647.

Going from U46C A51G to U46C A51U, the self-cleavage rises from 0.988 to 0.994.

First: U46C U62C
Second: U46C U62G
The self-cleavage of the first is lower: 0.895 for the first, 0.916 for the second.

First: U46C U62A
Second: U46A A52C
The self-cleavage of the first is lower: 0.943 for the first, 1.01 for the second.

First: C45G A60U
Second: C45G A60C
The self-cleavage of the first is lower: 0.407 for the first, 0.493 for the second.

Going from C45G A60G to C45G G47A, the self-cleavage rises from 0.897 to 1.03.

First: U44C G58C
Second: U44C G58U
The self-cleavage of the first is lower: 0.917 for the first, 0.963 for the second.

Going from U44C G58A to C45A G68A, the self-cleavage rises from 0.981 to 1.02.

First: C45A G68C
Second: C45A G68U
The self-cleavage of the first is lower: 0.965 for the first, 0.998 for the second.

First: U46A U64G
Second: U46A U64A
The self-cleavage of the first is higher: 0.964 for the first, 0.955 for the second.

Compared with U44G G65C, U44G G65A is higher in self-cleavage: 0.445 for the first, 0.812 for the second.

First: U44G G65U
Second: U46A U49A
The self-cleavage of the first is lower: 0.674 for the first, 1.02 for the second.

Going from U44C G47U to U44C G47A, the self-cleavage falls from 1.01 to 0.979.

Compared with U46A U62C, U46A U62G is higher in self-cleavage: 0.895 for the first, 0.925 for the second.

Going from C45G G65A to C45G G65U, the self-cleavage falls from 0.87 to 0.832.

Compared with C45A G58C, C45A G58A is lower in self-cleavage: 1.02 for the first, 1 for the second.

Going from C45A U64A to C45A U64C, the self-cleavage rises from 0.821 to 0.842.

Going from C45A U64G to U46C G68C, the self-cleavage rises from 0.809 to 0.985.

Going from U46C G68A to U44G U53A, the self-cleavage falls from 1 to 0.755.

Compared with U44G U53C, U44G U46G is higher in self-cleavage: 0.749 for the first, 0.909 for the second.

Going from U44G U46A to U44G U46C, the self-cleavage falls from 0.978 to 0.928.

Going from U46C C66G to U46C C66A, the self-cleavage rises from 0.762 to 0.763.

First: C45G G58A
Second: C45G G58U
The self-cleavage of the first is lower: 0.919 for the first, 1.01 for the second.

Going from C45G G58C to U44C, the self-cleavage rises from 0.946 to 0.957.

First: U44G
Second: C45G G50A
The self-cleavage of the first is lower: 0.985 for the first, 1.01 for the second.

Compared with C45G G50C, U44G G68U is higher in self-cleavage: 1.01 for the first, 1.03 for the second.

First: U44G G68A
Second: U44G G68C
The self-cleavage of the first is lower: 0.942 for the first, 1.01 for the second.

First: U46C G58A
Second: U44C U61C
The self-cleavage of the first is higher: 0.979 for the first, 0.317 for the second.

First: U46A U61G
Second: U46A U61C
The self-cleavage of the first is higher: 0.902 for the first, 0.86 for the second.

Going from U44C G65C to U46A C63U, the self-cleavage rises from 0.452 to 1.02.

Going from C45G C66G to U44C C54A, the self-cleavage falls from 0.877 to 0.627.

Compared with U44C C54U, U44C C54G is lower in self-cleavage: 0.816 for the first, 0.599 for the second.

Compared with C45G A51U, C45G A51C is lower in self-cleavage: 1.03 for the first, 1.01 for the second.

First: C45G A51G
Second: U44C G56C
The self-cleavage of the first is higher: 1.02 for the first, 0.351 for the second.

Going from U44C G56U to U46C G48C, the self-cleavage rises from 0.388 to 1.02.

Compared with U46C G48A, U46C G48U is lower in self-cleavage: 1.03 for the first, 1.02 for the second.

First: C45U U49A
Second: C45G A59C
The self-cleavage of the first is higher: 0.993 for the first, 0.638 for the second.

Compared with C45G A59G, C45G A59U is lower in self-cleavage: 0.969 for the first, 0.815 for the second.

Going from U46A C66A to U46A C66U, the self-cleavage rises from 0.924 to 0.972.

First: U46A C66G
Second: U46A G48A
The self-cleavage of the first is lower: 0.961 for the first, 1.01 for the second.

First: U46A G48U
Second: U46A G48C
The self-cleavage of the first is lower: 0.991 for the first, 1.01 for the second.

Compared with C45U U61C, C45U U61A is higher in self-cleavage: 0.887 for the first, 0.919 for the second.

First: U44C A59G
Second: U44C A59C
The self-cleavage of the first is higher: 0.958 for the first, 0.577 for the second.

First: U44C A59U
Second: C45G C63U
The self-cleavage of the first is lower: 0.657 for the first, 0.964 for the second.

Compared with U46C A59U, U46C A59G is higher in self-cleavage: 0.847 for the first, 1.03 for the second.

Compared with C45A U69G, C45A U69C is higher in self-cleavage: 1.06 for the first, 1.07 for the second.

With C45A U69A the self-cleavage was 1.
